{"source": "patent US20200352839", "system": "Compound E7 (CTP-Cas1-FINA)"}
{"substance": "caspase-1", "values": [{"measurement": "HPLC analysis after treatment with caspase-1 (cleavage)", "value": "the compound is cleaved into two moieties, that is, finasteride and the protein transduction domain"}]}
